Measured values from patent US20090215686A1.

Target: Met on MDCK (Madin-Darby canine kidney) cells (canine) (UniProt Q75ZY9)
Assay: cell-based or functional assay

concentration at which agonistic activity is seen (MDCK colony scatter)	Substance
> 10 nM	NK1 version of the receptor-binding mutant K1M (E195A:R197A:Y198A) (from UniProt P14210 28-209) (ligand)
100 nM	NK1 version of the receptor-binding mutant K1N (E159A:S161A:E195A:R197A:Y198A) (from UniProt P14210 28-209) (ligand)
